“Also recorded” adds a separate entry of the source.
Legend:
[1] = target: T1, P4 beads (Streptococcus pneumoniae serotype 4, UniProt P0A4G2); test: Mouse immunization: serum % IA of P4 beads (anti P4 activity); type: in vivo
T1 sequence (P0A4G2 251-278 D258K/D259R): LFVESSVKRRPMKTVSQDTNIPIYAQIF
Method: (§1) Serum inhibition of adherence assays were performed as previously described for the inhibition of pneumococcal adherence (Romero-Steiner). Two buffer solutions were found suitable for this type of assay: solution 1 (EMEM medium—Hanks buffered saline with Ca++ and Mg++ supplemented with 0.2% BSA) as previously reported (Romero-Steiner) or solution 2 (PBS 10 mM, pH7.2-7.4 supplemented with 1% BSA and 0.5% BSA for washes) as described below. Use of one buffer solution in preference to the other depended on availability of BSA (Sigma cat #A2153). Alternative preparations of BSA were evaluated but were not found suitable for this assay due to toxicity to the cell monolayer. Briefly, confluent monolayers of Detroit 562 cells were washed once with 130 μl/well of PBS buffer+0.5% BSA. A 45 μl volume of PBS buffer+1% BSA was added to each well and the plate was incubated while preparing serum dilutions in a replicate plate (U-bottom Costar). Serum dilutions in the replica plate could be performed in a 2-fold or 3-fold dilution scheme. For the 2-fold dilution scheme, a 10 μl volume of test or control serum was added to the first row of wells (B2-B11) already containing 70 μl of PBS+1% BSA. A 40 μl volume of PBS+1% BSA was added to the remainder of the wells including the outer perimeter. The sera from row B was serially diluted into rows C-F with a multichannel pipetor set at 40 μl (2-fold). The last 401 was discarded into the waste. Serum was not added to the adherence control wells (row G or column 11). A 20 μl volume of the optimal fluosphere dilution (usually 1:100 or 1:150, containing ˜3,100 fluospheres) was added to each well, including serum-free controls. The fluosphere suspension was sonicated for 3 minutes prior to addition to the center of the wells to generate a single fluosphere suspension. The microtiter plate was mixed by tapping the sides gently and incubated for 15 minutes at 37° C., 5% CO2. At the end of the incubation period, 55 μl/well was replica plated into the microtiter plate containing the washed monolayers containing 45 μl of PBS+1% BSA. The final well volume was always adjusted to 100-μl volume regardless of the serum dilution scheme used (2-fold or 3-fold) to control the reproducibility of fluosphere adherence The plate was mixed by tapping the sides gently and incubated for 2 hours at 37° C., 5% CO2. Following incubation, plates were washed 5 times with 130 μl/well of PBS+0.5% BSA. The plates were allowed to dry before reading in a fluorometer (BioTek, FLX 800) at 485 nm for excitation and emission at 520 nm. The percent inhibition of adherence (IA) was calculated as compared to adherence controls. The following formula was used: % IA=100-(test well FU×100)/controls mean FU.

[2] = target: T2, P4 beads (Streptococcus pneumoniae serotype 4, UniProt P0A4G2, D258K/D259R); test: as above; type: in vivo; conditions: sera 1:32 dilution
T2 sequence (P0A4G2 251-278 D258K/D259R): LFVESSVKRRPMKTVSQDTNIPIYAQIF
Method: as §1

[3] = test system: HL-60, RAW 264.7 and Detroit 562 cells; test: P4 activation of phagocytes and epithelial cells (cytokine release, TEM); type: cell-based
Method: Cell suspensions of HL-60 (promyelocytes) and RAW 264.7 (monocytes), and Detroit 562 cells (nasopharyngeal epithelial cells) were centrifuged at 1000 rpm-10 min and the pellet was resuspended in 1 ml PBS buffer. To this, P4 solution (1 mg/ml) was added at 10% (v/v) concentration, mixed by inverting few times and incubated at 37° C., 5% CO2 for 15 min (HL-60 and RAW) or 30 min (Detroit 562). After incubation, the cells were centrifuged again and the supernatant was analyzed for cytokines and the cell pellet was washed once in PBS, fixed in 2% glutaraldehyde and processed for transmission electron microscopic (TEM) analysis.

[4] = test system: LEC-5 and NEO fibroblast cell lines; test: Growth of fibroblasts with P4 treated cell supernatant; type: cell-based; conditions: supernatant of P4 treated cells with higher FGFbasic, different concentrations
Method: 2 fibroblast cell lines, LEC-5 and NEO, were used. These cells were grown in a 96 well titer plates until they become confluent (˜6 days). To this, the P4 treated cell supernatant that had higher concentration of FGFbasic was added at different concentrations and the growth was monitored fluormetrically with the help of a fluorometric metabolic indicator.

[5] = test system: Detroit 562 cells; test: Competitive inhibition of adherence of rPsaA-coated fluospheres to Detroit 562 cells; type: cell-based, human; conditions: competitor 100 μg (so in the source)
[6] = target: T3, PsaA beads (Streptococcus pneumoniae serotype 4, UniProt P0A4G2); test: Mouse immunization: serum % IA of PsaA beads (anti PsaA activity); type: in vivo
T3 construct: Both, rPsaA (MW 34,079 daltons) and the synthetic peptides were non-lipidated; purchased Aventis-Pasteur, Toronto, Ontario, Canada (donated)
T3 sequence (P0A4G2 20-309): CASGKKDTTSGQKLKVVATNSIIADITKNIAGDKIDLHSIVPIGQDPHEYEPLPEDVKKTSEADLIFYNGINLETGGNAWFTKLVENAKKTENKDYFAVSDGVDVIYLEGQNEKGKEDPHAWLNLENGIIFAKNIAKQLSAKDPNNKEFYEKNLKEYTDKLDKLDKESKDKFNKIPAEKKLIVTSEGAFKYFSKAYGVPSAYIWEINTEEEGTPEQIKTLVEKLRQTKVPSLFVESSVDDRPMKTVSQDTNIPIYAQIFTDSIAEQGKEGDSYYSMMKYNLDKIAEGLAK
Method: as §1

[7] = mice serum dilution factor 8, 7th day
[8] = mice serum dilution factor 8, 11th day
[9] = mice serum dilution factor 16, 7th day
[10] = mice serum dilution factor 16, 11th day
[11] = mice serum dilution factor 32, 7th day
[12] = mice serum dilution factor 32, 11th day
[13] = mice serum dilution factor 64, 7th day
[14] = mice serum dilution factor 64, 11th day
[15] = mice serum dilution factor 128, 7th day
[16] = mice serum dilution factor 128, 11th day
[17] = mice serum dilution factor 256, 7th day
[18] = mice serum dilution factor 256, 11th day
[19] = mice serum dilution factor 512, 7th day
[20] = mice serum dilution factor 512, 11th day
[21] = mice serum dilution factor 1024, 7th day
[22] = mice serum dilution factor 1024, 11th day
[23] = mice serum dilution factor 2048, 7th day
[24] = mice serum dilution factor 2048, 11th day
[25] = mice serum dilution factor 4096, 7th day
[26] = mice serum dilution factor 4096, 11th day
[27] = P4 solution (1 mg/ml) at 10% (v/v), 15 or 30 min

Molecule: LFVESSVKRRPMKTVSQDTNIPIYAQIF [P4, non-branched synthetic peptide, PsaA amino acid residues 251 to 278 with DD changed to KR]
- Anti P4 activity (% IA of P4 beads) [1, 7]: 81%
- Anti P4 activity (% IA of P4 beads) [1, 8]: 95%
- Anti P4 activity (% IA of P4 beads) [1, 9]: 40%
- Anti P4 activity (% IA of P4 beads) [1, 10]: 44%
- Anti P4 activity (% IA of P4 beads) [1, 11]: 31%
- Anti P4 activity (% IA of P4 beads) [1, 12]: 45%
- Anti P4 activity (% IA of P4 beads) [1, 13]: 0%
- Anti P4 activity (% IA of P4 beads) [1, 14]: 4%
- Anti P4 activity (% IA of P4 beads) [1, 15]: 0%
- Anti P4 activity (% IA of P4 beads) [1, 16]: 0%
- Anti P4 activity (% IA of P4 beads) [1, 17]: 0%
- Anti P4 activity (% IA of P4 beads) [1, 18]: 0%
- Anti P4 activity (% IA of P4 beads) [1, 19]: 0%
- Anti P4 activity (% IA of P4 beads) [1, 20]: 0%
- Anti P4 activity (% IA of P4 beads) [1, 21]: 0%
- Anti P4 activity (% IA of P4 beads) [1, 22]: 0%
- Anti P4 activity (% IA of P4 beads) [1, 23]: 0%
- Anti P4 activity (% IA of P4 beads) [1, 24]: 0%
- Anti P4 activity (% IA of P4 beads) [1, 25]: 0%
- Anti P4 activity (% IA of P4 beads) [1, 26]: 0%
- inhibition of adherence detected in sera from immunized mice [2]: Up to 45%
- bacterial adherence to P4 treated NP cells ([3]; Detroit 562 NP cells exposed to P4 solution): enhancement in bacterial adherence
- EGF release/production [3, 27]: brings down EGF production; also recorded: down regulated
- FGFbasic release/production [3, 27]: up regulated
- IL8 release/production [3, 27]: down regulated
- cell morphology by TEM and light photomicrographs [3, 27]: phagocytic activation
- growth of fibroblasts (fluorometric metabolic indicator) [4]: enhancement in the growth
- reduction in FU of PsaA-coated beads [5]: 68%

B1: rPsaA: purified recombinant pneumococcal surface adhesin A, non-lipidated, donated by Aventis-Pasteur (protein)
chain: T3 sequence (P0A4G2 20-309)
- Anti PsaA activity (% IA of PsaA beads) [6, 7]: 84%
- Anti PsaA activity (% IA of PsaA beads) [6, 8]: 79%
- Anti PsaA activity (% IA of PsaA beads) [6, 9]: 47%
- Anti PsaA activity (% IA of PsaA beads) [6, 10]: 37%
- Anti PsaA activity (% IA of PsaA beads) [6, 11]: 42%
- Anti PsaA activity (% IA of PsaA beads) [6, 12]: 34%
- Anti PsaA activity (% IA of PsaA beads) [6, 13]: 0%
- Anti PsaA activity (% IA of PsaA beads) [6, 14]: 11%
- Anti PsaA activity (% IA of PsaA beads) [6, 15]: 0%
- Anti PsaA activity (% IA of PsaA beads) [6, 16]: 1%
- Anti PsaA activity (% IA of PsaA beads) [6, 17]: 0%
- Anti PsaA activity (% IA of PsaA beads) [6, 18]: 0%
- Anti PsaA activity (% IA of PsaA beads) [6, 19]: 0%
- Anti PsaA activity (% IA of PsaA beads) [6, 20]: 0%
- Anti PsaA activity (% IA of PsaA beads) [6, 21]: 0%
- Anti PsaA activity (% IA of PsaA beads) [6, 22]: 0%
- Anti PsaA activity (% IA of PsaA beads) [6, 23]: 0%
- Anti PsaA activity (% IA of PsaA beads) [6, 24]: 4%
- Anti PsaA activity (% IA of PsaA beads) [6, 25]: 0%
- Anti PsaA activity (% IA of PsaA beads) [6, 26]: 18%

Source: patent US7919104B2, “Functional epitopes of Streptococcus pneumoniae PsaA antigen and uses thereof” (priority 2005, dated 2011)
